Measurements reported in US20140105889A1 (published 2014).
Substitutions are numbered along the chain they refer to. In names and notes the source's numbering stands.

T1: human FcγRIIa(R) (human, UniProt P12318 36-217)
T1 construct: Analyte in solution on Biacore; also called FcγRIIa type R; FcgRIIaR
T1 chain: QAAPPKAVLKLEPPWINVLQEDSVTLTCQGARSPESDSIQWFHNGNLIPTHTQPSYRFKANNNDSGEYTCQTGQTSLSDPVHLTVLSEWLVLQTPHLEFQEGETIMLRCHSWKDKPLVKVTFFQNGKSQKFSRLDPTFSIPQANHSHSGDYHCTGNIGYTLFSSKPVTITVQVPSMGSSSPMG

T2: human FcγRIIa type H (human, UniProt P12318 36-217)
T2 construct: also called FcgRIIaH; FcγRIIa(H)
T2 sequence: T1 chain with R133H

T3: human FcγRIIb (human, UniProt P31994 43-217, limits assumed)
T3 construct: also called FcgRIIb; FcγIIB
T3 sequence: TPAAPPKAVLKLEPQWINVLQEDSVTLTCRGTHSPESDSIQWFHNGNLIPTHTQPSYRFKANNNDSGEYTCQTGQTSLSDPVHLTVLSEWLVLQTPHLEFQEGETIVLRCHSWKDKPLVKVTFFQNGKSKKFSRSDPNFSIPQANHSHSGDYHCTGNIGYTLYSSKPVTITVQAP

T4: human FcγRIIb (human, UniProt P31994 43-217)
T4 construct: also called FcγIIB
T4 sequence: T3 sequence

B1: IL6R-BP188/IL6R-L (antibody, human IgG1)
heavy: QVQLQESGPGLVKPSETLSLTCAVSGHSISHDHAWSWVRQPPGEGLEWIGFISYSGITNYNPSLQGRVTISRDNSKNTLYLQMNSLRAEDTAVYYCARSLARTTAMDYWGEGTLVTVSSASTKGPSVFPLAPSSKSTSGGTAALGCLVKDYFPEPVTVSWNSGALTSGVHTFPAVLQSSGLYSLSSVVTVPSSSLGTQTYICNVNHKPSNTKVDKKVEPKSCDKTHTCPPCPAPDLLGDDSVFLFPPKPKDTLMISRTPEVTCVVVDVSDEDGEVKFNWYVDGVEVHNAKTKPREEQYNSTYRVVSVLTVLHQDWLNGKEYKCKVSNKALPKPIEKTISKAKGQPREPQVYTLPPSRDELTKNQVSLTCLVKGFYPSDIAVEWESNGQPENNYKTTPPVLDSDGSFFLYSKLTVDKSRWQQGNVFSCSVMHEALHNHYTQESLSLSP
light: DIQMTQSPSSLSASVGDRVTITCRASQDISSYLNWYQQKPGKAPKLLIYYTSRLHSGVPSRFSGSGSGTDFTFTISSLQPEDIATYYCQQGNTLPYTFGQGTKVEIK
notes: Anti-human IL-6 receptor human IgG1 variant; copies: 2 + 2
B2: IL6R-BP197/IL6R-L (antibody, human IgG1)
heavy: B1 heavy with L236Y, Y298D, K328D
light: B1 light
notes: as for B1
B3: IL6R-BP195/IL6R-L (antibody, human IgG1)
heavy: B1 heavy with L236Y, Y298D, K328A
light: B1 light
notes: as for B1
B4: IL6R-BP199/IL6R-L (antibody, human IgG1)
heavy: B1 heavy with D239G, D270H, G273P, K328D, K332R
light: B1 light
notes: Anti-human IL-6 receptor human IgG1 variant; uncertain; copies: 2 + 2
B5: IL6R-BP190/IL6R-L (antibody, human IgG1)
heavy: B1 heavy with D235E
light: B1 light
notes: as for B1
B6: IL6R-BP191/IL6R-L (antibody, human IgG1)
heavy: B1 heavy with D239G, K328A
light: B1 light
notes: as for B1
B7: IL6R-BP183/IL6R-L (antibody, human IgG1)
heavy: B1 heavy with L236Y, D239G, D270H, K328A
light: B1 light
notes: as for B1
B8: IL6R-BP186/IL6R-L (antibody, human IgG1)
heavy: B1 heavy with L236Y, D270H, Y298D, K328A
light: B1 light
notes: as for B1
B9: IL6R-BP196/IL6R-L (antibody, human IgG1)
heavy: B1 heavy with D235E, L236Y, D239G, K328A
light: B1 light
notes: as for B1
B10: IL6R-BP198/IL6R-L (antibody, human IgG1)
heavy: B1 heavy with L236Y, D239G, K328A
light: B1 light
notes: as for B1
B11: IL6R-BP187/IL6R-L (antibody, human IgG1)
heavy: B1 heavy with D235E, L236Y, D239G, D270H, K328A
light: B1 light
notes: as for B1
B12: GpH7-B3 variant P331G / GpL16-k0 (antibody, human IgG1)
heavy: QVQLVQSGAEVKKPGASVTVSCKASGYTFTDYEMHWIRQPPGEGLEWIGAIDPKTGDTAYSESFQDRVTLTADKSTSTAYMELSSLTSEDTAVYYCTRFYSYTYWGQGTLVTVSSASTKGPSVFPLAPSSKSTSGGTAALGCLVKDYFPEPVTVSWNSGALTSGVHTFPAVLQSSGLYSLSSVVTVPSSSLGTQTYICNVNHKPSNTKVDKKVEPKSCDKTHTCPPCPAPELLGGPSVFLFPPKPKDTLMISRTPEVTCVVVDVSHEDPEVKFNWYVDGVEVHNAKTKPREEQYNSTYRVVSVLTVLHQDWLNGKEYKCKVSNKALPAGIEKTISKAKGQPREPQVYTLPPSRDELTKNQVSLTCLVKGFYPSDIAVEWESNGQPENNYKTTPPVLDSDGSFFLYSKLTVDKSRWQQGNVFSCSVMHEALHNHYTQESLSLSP
light: DIVMTQSPLSLPVTPGEPASISCQASESLVHSNRNTYLHWYLQKPGQSPQLLIYKVSNRFSGVPDRFSGSGSGTDFTLKISRVEAEDVGVYYCSQNTHVPPTFGQGTKVEIE
notes: Anti-glypican-3 IgG1; constant region B3 = G1d with K439E
B13: IL6R-BP198/IL6R-L (antibody, human IgG1)
heavy: B1 heavy with L236Y, D239G, K328A
light: B1 light
notes: The common L chain is IL6R-L; copies: 2 + 2
B14: IL6R-BP212/IL6R-L (antibody, human IgG1)
heavy: B1 heavy with D239G, Y298D, K332R
light: B1 light
notes: as for B13
B15: IL6R-BP199/IL6R-L (antibody)
heavy: B1 heavy with D239G, D270H, G273P, K328D, K332R
light: B1 light
notes: copies: 2 + 2
B16: IL6R-BP208/IL6R-L (antibody, human IgG1)
heavy: B1 heavy with K332R
light: B1 light
notes: as for B13
B17: IL6R-BP209/IL6R-L (antibody, human IgG1)
heavy: B1 heavy with D235E, K328A, K332R
light: B1 light
notes: as for B13
B18: IL6R-BP206/IL6R-L (antibody, human IgG1)
heavy: B1 heavy with D239G, D270H, K332R
light: B1 light
notes: as for B13
B19: IL6R-BP203/IL6R-L (antibody, human IgG1)
heavy: B1 heavy with D235E, D270H, K332R
light: B1 light
notes: as for B13
B20: IL6R-BP207/IL6R-L (antibody, human IgG1)
heavy: B1 heavy with D239G, D270H, G273P, K332R
light: B1 light
notes: as for B13
B21: antibody containing VH3-IgG1-F890 for the heavy chain and L(WT)-CK for the light chain (antibody)
heavy: B1 heavy with D235E, D239G, D240P, M254Y, D270H, G273P, K332A, N436Y, Y438V, E441K
light: not shown
B22: antibody containing VH3-IgG1-F939 for the heavy chain and L(WT)-CK for the light chain (antibody)
heavy: QVQLQESGPGLVKPSETLSLTCAVSGHSISHDHAWSWVRQPPGEGLEWIGFISYSGITNYNPSLQGRVTISRDNSKNTLYLQMNSLRAEDTAVYYCARSLARTTAMDYWGEGTLVTVSSASTKGPSVFPLAPSSKSTSGGTAALGCLVKDYFPEPVTVSWNSGALTSGVHTFPAVLQSSGLYSLSSVVTVPSSSLGTQTYICNVNHKPSNTKVDKKVEPKSCDKTHTCPPCPAPELRGGPKVFLFPPKPKDTLYISRTPEVTCVVVDVSHEDPEVKFNWYVDGVEVHNAKTKPREEQYNSTYRVVSVLTVLHQDWLNGKEYKCKVSNKALPAPIEKTISKAKGQPREPQVYTLPPSRDELTKNQVSLTCLVKGFYPSDIAVEWESNGQPENNYKTTPPVLDSDGSFFLYSKLTVDKSRWQQGNVFSCSVMHEALHYHVTQKSLSLSP
light: not shown
B23: antibody containing VH3-IgG1-F947 for the heavy chain and L(WT)-CK for the light chain (antibody)
heavy: B22 heavy with R237L, K241S, T252V, T309Q, V310P, Q313A
light: not shown
B24: antibody containing VH3-IgG1-F938 for the heavy chain and L(WT)-CK for the light chain (antibody)
heavy: B22 heavy with R237K
light: not shown

biological target: T5, human FcγRIIIa type V (allotype V158) (human, UniProt P08637 17-208, limits assumed); assay: SPR (Biacore), antibody captured on the chip, FcγR as analyte
T5 construct: the assay used allotype V158; also called FcγRIIIaV; FcγRIIIa(V)
T5 sequence (P08637 other isoform, or with tags, fused parts or gaps limits assumed): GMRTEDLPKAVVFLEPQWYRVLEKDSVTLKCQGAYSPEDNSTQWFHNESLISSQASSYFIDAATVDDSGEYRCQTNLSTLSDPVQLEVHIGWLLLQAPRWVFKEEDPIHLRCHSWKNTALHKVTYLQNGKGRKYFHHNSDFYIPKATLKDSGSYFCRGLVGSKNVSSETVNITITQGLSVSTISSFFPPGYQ

Row | Binder | Kd
1 | B1 | 68 µM
2 | B2 | 33 µM
3 | B3 | 31 µM
4 | B4 | 61 µM
5 | B5 | 45 µM
6 | B6 | 49 µM
7 | B7 | 56 µM
8 | B8 | 49 µM
9 | B9 | 51 µM
10 | B10 | 44 µM
11 | B11 | 56 µM

biological target: T6, human FcγRIa (human, UniProt P12314 16-292, limits assumed); assay: SPR (Biacore), antibody captured on chip, FcγR as analyte, HBS-EP+, 25°C;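 further: FcγR binding response divided by the amount of captured antibody, then expressed relative to the reference antibody ×100, with antibodies captured via immobilized Protein A, A/G, L or antigen peptides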
T6 construct: Analyte in solution on Biacore; also called FcgRIa; hFcgRIa
T6 sequence (P12314 16-292 limits assumed): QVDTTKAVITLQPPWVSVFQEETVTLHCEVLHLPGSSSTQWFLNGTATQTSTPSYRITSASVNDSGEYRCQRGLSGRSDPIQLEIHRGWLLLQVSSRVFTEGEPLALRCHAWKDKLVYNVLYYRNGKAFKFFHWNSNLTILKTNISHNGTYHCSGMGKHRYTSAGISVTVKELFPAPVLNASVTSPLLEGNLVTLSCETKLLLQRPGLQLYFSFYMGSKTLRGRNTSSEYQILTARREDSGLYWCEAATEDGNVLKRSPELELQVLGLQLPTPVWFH
Protocol: (§1) Interaction between each modified antibody and Fcγ receptor prepared in the manner described above was analyzed using the Biacore T100 (GE Healthcare), Biacore T200 (GE Healthcare), Biacore A100 or Biacore 4000. HBS-EP+ (GE Healthcare) was used for the running buffer, and measurements were carried out at 25° C. The chips used were chips in which antigen peptides, Protein A (Thermo Scientific), Protein A/G (Thermo Scientific) or Protein L (ACTIGEN or BioVision) were immobilized on the Series S Sensor Chip CM5 (GE Healthcare) or Series S Sensor Chip CM4 (GE Healthcare) by amine coupling, or chips in which preliminarily biotinylated antigen peptides were allowed to interact and then immobilized on the Series S Sensor Chip SA (certified) (GE Healthcare). The target antibodies were captured on these sensor chips, Fcγ receptor diluted with the running buffer was allowed to interact, followed by measurement of the amount of bound antibody. The amounts bound were compared between antibodies. However, since the amount of Fcγ receptor bound depends on the amount of captured antibody, the values used for comparison were first corrected by dividing the amount of Fcγ receptor bound by the captured amount of each antibody. Through reaction with 10 mM glycine-HCl at pH 1.5, the sensor chips were regenerated by washing off antibody captured on the sensor chips and used repeatedly.
(§2) Binding strength was evaluated according to the following method based on the results of analyzing the interaction with each FcγR. […] That value was then further multiplied by 100, and the resulting value was used as an indicator of relative binding activity to each FcγR.

Row | Binder | relative binding activity (% of GpH7-B3/GpL16-k0)
12 | B12 | 88%

Biological target: T1, human FcγRIIa(R)
Assay: as above
Protocol: as §1, §2

Row | Binder | relative binding activity (% of GpH7-B3/GpL16-k0)
13 | B12 | 13%

biological target: T7, human FcγRIa (human, UniProt P12314 16-292, limits assumed); assay: SPR (Biacore); binding amount divided by that of control IL6R-BF648/IL6R-L, x100
T7 construct: also called FcgRIa; CD64
T7 sequence (P12314 16-292 limits assumed): as above
Protocol: (§3) According to the following method, relative binding activities were calculated for the results of analyzing interactions with the respective FcγRs.

Row | Binder | relative binding activity
14 | B13 | 104 % of IL6R-BF648/IL6R-L
15 | B14 | 117 % of IL6R-BF648/IL6R-L
16 | B15 | 112 % of IL6R-BF648/IL6R-L
17 | B16 | 81 % of IL6R-BF648/IL6R-L
18 | B17 | 68 % of IL6R-BF648/IL6R-L
19 | B18 | 101 % of IL6R-BF648/IL6R-L
20 | B19 | 35 % of IL6R-BF648/IL6R-L
21 | B20 | 74 % of IL6R-BF648/IL6R-L

biological target: T2, human FcγRIIa type H; assay: as above
Protocol: as §3

Row | Binder | relative binding activity
22 | B13 | 188 % of IL6R-BF648/IL6R-L
23 | B14 | 135 % of IL6R-BF648/IL6R-L
24 | B15 | 116 % of IL6R-BF648/IL6R-L
25 | B16 | 310 % of IL6R-BF648/IL6R-L
26 | B17 | 267 % of IL6R-BF648/IL6R-L
27 | B18 | 123 % of IL6R-BF648/IL6R-L
28 | B19 | 255 % of IL6R-BF648/IL6R-L
29 | B20 | 103 % of IL6R-BF648/IL6R-L

biological target: T3, human FcγRIIb; assay: as above
Protocol: as §3

Row | Binder | relative binding activity
30 | B13 | 164 % of IL6R-BF648/IL6R-L
31 | B14 | 173 % of IL6R-BF648/IL6R-L
32 | B15 | 144 % of IL6R-BF648/IL6R-L
33 | B16 | 188 % of IL6R-BF648/IL6R-L
34 | B17 | 186 % of IL6R-BF648/IL6R-L
35 | B18 | 168 % of IL6R-BF648/IL6R-L
36 | B19 | 185 % of IL6R-BF648/IL6R-L
37 | B20 | 124 % of IL6R-BF648/IL6R-L

biological target: T8, human FcγRIIIa type V (human, UniProt P08637 17-208, limits assumed); assay: as above
T8 construct: The assay used allotype V158; also called FcgRIIIaV; FcγRIIIa(V)
Protocol: as §3

Row | Binder | relative binding activity
38 | B13 | 157 % of IL6R-BF648/IL6R-L
39 | B14 | 122 % of IL6R-BF648/IL6R-L
40 | B15 | 103 % of IL6R-BF648/IL6R-L
41 | B16 | 118 % of IL6R-BF648/IL6R-L
42 | B17 | 153 % of IL6R-BF648/IL6R-L
43 | B18 | 92 % of IL6R-BF648/IL6R-L
44 | B19 | 88 % of IL6R-BF648/IL6R-L
45 | B20 | 97 % of IL6R-BF648/IL6R-L

biological target: T4, human FcγRIIb; assay: SPR (Biacore); KD of parent IL6R-B3/IL6R-L for FcγRIIb divided by KD of the variant for FcγRIIb
Description: Furthermore, KD(IIaR)/KD(IIb) and KD(IIaH)/KD(IIb) in the table respectively represent the value obtained by dividing the KD value of each variant for FcγRIIaR by the KD value of each variant for FcγRIIb, and the value obtained by dividing the KD value of each variant for FcγRIIaH by the KD value of each variant for FcγRIIb.

Row | Binder | KD(IIb) of the parent polypeptide/KD(IIb) of the altered polypeptide
46 | B1 | 87.6
47 | B2 | 53.7
48 | B3 | 82
49 | B4 | 6.3
50 | B5 | 53.2
51 | B6 | 21.2
52 | B7 | 12.9
53 | B8 | 50.7
54 | B9 | 13.9
55 | B10 | 15.7
56 | B11 | 1.7

biological target: T9, human FcγRIIIa(F) (human, UniProt P08637 17-208, limits assumed); assay: SPR (Biacore), antibody captured on Protein L, human FcgR as analyte, pH 7.4, 25 C; amount normalised to captured antibody
T9 construct: also called hFcgRIIIa(F); allotype F158
T9 sequence (P08637 other isoform, or with tags, fused parts or gaps limits assumed): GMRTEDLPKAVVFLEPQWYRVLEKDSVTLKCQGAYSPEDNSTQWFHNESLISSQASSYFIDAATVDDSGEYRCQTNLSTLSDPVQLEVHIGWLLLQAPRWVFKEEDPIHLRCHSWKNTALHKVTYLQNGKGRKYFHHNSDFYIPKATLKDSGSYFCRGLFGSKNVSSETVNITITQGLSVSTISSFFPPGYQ
Protocol: Binding activity between the antibodies and human FcγRIa, FcγRIIa(H), FcγRIIa(R), FcγRIIb and FcγRIIIa(F) (hereinafter referred to as human FcγRs) was evaluated using the Biacore T100 or T200 (GE Healthcare). The antibodies being tested were captured by Protein L (ACTIGEN) that was immobilized in suitable amounts on the CM4 Sensor Chip (GE Healthcare) by amine coupling. Next, the diluted human FcγRs and a running buffer used as a blank were injected to allow interaction with the antibodies captured on the sensor chip. A buffer consisting of 20 mmol/L ACES, 150 mmol/L NaCl and 0.05% (w/v) Tween 20 (pH 7.4) was used for the running buffer, and this buffer was also used to dilute the human FcγRs. 10 mmol/L glycine-HCl (pH 1.5) was used to regenerate the sensor chip. All measurements were carried out at 25° C.
Binding activity to human FcγRs can be represented by the relative binding activity to human FcγRs. Antibody was captured by Protein L, and the amount of change in a sensorgram before and after the antibody was captured was defined as X1. Next, human FcγRs were allowed to interact with the antibody, and the value obtained by subtracting binding activity of human FcγRs represented as the amount of change in a sensorgram before and after allowing the running buffer to interact with antibody captured by Protein L (ΔA2) from the value obtained by multiplying by 1500 the value obtained by dividing the binding activity of human FcγRs represented as the amount of change in a sensorgram before and after that interaction (ΔA1) by the captured amount (X) of each antibody, was divided by the captured amount of each antibody (X) followed by multiplying by 1500 to obtain the binding activity of the human FcγRs (Y) (Equation 2).

Row | Binder | BINDING AMOUNT (RU)
57 | B21 | 63.5 RU
58 | B22 | 0.51 RU
59 | B23 | 105 RU
60 | B24 | -0.34 RU
